Values belong to the substance of their own block, whether it stands above or below them.
How the values were obtained:
Test in all cases: AUC
Pcdhα7 EC1-EC5 (mouse) = target: Pcdhα7 EC1-EC5 (mouse)
PcdhαC2 EC1-EC4 (mouse) = target: PcdhαC2 EC1-EC4 (mouse)
PcdhαC2 EC1-EC5 (mouse) = target: PcdhαC2 EC1-EC5 (mouse)
[1] = target: PcdhαC2 EC1-EC6 (complete ectodomain) (mouse)
[2] = target: PcdhαC2 EC1-EC6 S118R (mouse)
PcdhαC2 EC2-EC6 (mouse) = target: PcdhαC2 EC2-EC6 (mouse)
PcdhγA8 EC1-EC4 (mouse) = target: PcdhγA8 EC1-EC4 (mouse)
PcdhγA8 EC2-EC6 (mouse) = target: PcdhγA8 EC2-EC6 (mouse)
PcdhγB6 EC1-EC4 = target: PcdhγB6 EC1-EC4
[3] = target: PcdhγB6 EC1-EC6 (complete ectodomain)
PcdhγC5 EC1-EC5 (mouse) = target: PcdhγC5 EC1-EC5 (mouse)
[4] = target: PcdhγC5 EC1-EC6 (complete ectodomain) (mouse)
[5] = target: PcdhγC5 EC1-EC6 S116R (mouse)
PcdhγC5 EC2-EC6 (mouse) = target: PcdhγC5 EC2-EC6 (mouse)
[6] = target: PcdhγC5 EC2-EC6 S116R (mouse)

- Kd (Pcdhα7 EC1-EC5 (mouse)): 2.9 µM
- stoichiometry N (Pcdhα7 EC1-EC5 (mouse)): 2
Substance: Pcdhα7 EC1-EC5 (domain or fragment)

- Kd (PcdhαC2 EC1-EC4 (mouse)): 20 µM
- stoichiometry N (PcdhαC2 EC1-EC4 (mouse)): 2
Substance: PcdhαC2 EC1-EC4 (domain or fragment)

- Kd (PcdhαC2 EC1-EC5 (mouse)): 5.9 µM
- stoichiometry N (PcdhαC2 EC1-EC5 (mouse)): 2
Substance: PcdhαC2 EC1-EC5 (domain or fragment)

- Kd [1]: 0.1 µM
- stoichiometry N [1]: 4
Substance: PcdhαC2 EC1-EC6 (complete ectodomain) (domain or fragment)

- Kd [2]: 1.8 µM
- stoichiometry N [2]: 4
Substance: PcdhαC2 EC1-EC6 S118R (domain or fragment)

- stoichiometry N (PcdhαC2 EC2-EC6 (mouse)): 2
Substance: PcdhαC2 EC2-EC6 (domain or fragment)

- Kd (PcdhγA8 EC1-EC4 (mouse)): 30 µM
- stoichiometry N (PcdhγA8 EC1-EC4 (mouse)): 2
Substance: PcdhγA8 EC1-EC4 (domain or fragment)

- Kd (PcdhγA8 EC2-EC6 (mouse)): 23 µM
- stoichiometry N (PcdhγA8 EC2-EC6 (mouse)): 2
Substance: PcdhγA8 EC2-EC6 (domain or fragment)

- Kd (PcdhγB6 EC1-EC4): 29 µM
- stoichiometry N (PcdhγB6 EC1-EC4): 2
Substance: PcdhγB6 EC1-EC4 (domain or fragment)

- stoichiometry N [3]: 4
Substance: PcdhγB6 EC1-EC6 (complete ectodomain) (domain or fragment)

- Kd (PcdhγC5 EC1-EC5 (mouse)): 100 µM
- stoichiometry N (PcdhγC5 EC1-EC5 (mouse)): 2
Substance: PcdhγC5 EC1-EC5 (domain or fragment)

- stoichiometry N [4]: 4
Substance: PcdhγC5 EC1-EC6 (complete ectodomain) (domain or fragment)

- Kd [5]: 5.7 µM
- stoichiometry N [5]: 2
Substance: PcdhγC5 EC1-EC6 S116R (domain or fragment)

- stoichiometry N (PcdhγC5 EC2-EC6 (mouse)): 2
Substance: PcdhγC5 EC2-EC6 (domain or fragment)

- Kd [6]: 14 µM
- stoichiometry N [6]: 2
Substance: PcdhγC5 EC2-EC6 S116R (domain or fragment)

Reference: article PMC4624033
